Source: US20130164256A1 (AbbVie / Abbott, published 2013)
Where a chain is given by its changes, count along the chain named.

B1: hMAK195-AM14 (antibody, V domains shown)
VH: EVQLVESGGGLVQPGGSLRLSCAASGFTFSNYGVSWVRQAPGKGLEWVSMIWADGSTHYASSLKGRFTISRDNSKNTLYLQMNSLRAEDTAVYYCAREWQHGPVAYWGQGTLVTVSS
VL: DIQMTQSPSSLSASVGDRVTITCKASQAVSSAVAWYQQKPGKAPKLLIYWASTRHTGVPSRFSGSGSGTDFTLTISSLQPEDFATYYCQQHYSTPFTFGQGTKLEIKR
notes: Full-length IgG; also called rHC3; hMAK195 rHC3
B2: hMAK195-AM16 (antibody, V domains shown)
VH: B1 VH with S35T, L63V, V104A
VL: B1 VL
notes: Full-length IgG; also called rHC19; hMAK195 rHC19
B3: hMAK195-AM17 (antibody, V domains shown)
VH: B1 VH with S35T, H58D, S61D, S62T, L63V
VL: B1 VL
notes: Full-length IgG; also called rHC22; hMAK195 rHC22
B4: hMAK195-AM25 (antibody, V domains shown)
VH: B1 VH with S35T, L63V
VL: B1 VL with K24R, A28L, R54L, S93R
notes: Full-length IgG; also called S4-24; hMAK195 S4-24
B5: hMAK199-AM1 (antibody, V domains shown)
VH: EVQLVQSGAEVKKPGASVKVSCKASGYTFANYGIIWVRQAPGQGLEWMGWINTYTGKPTYAQKFQGRVTMTTDTSTSTAYMELSSLRSEDTAVYYCARKLFTTMDVTDNAMDYWGQGTTVTVSS
VL: DIQMTQSPSSLSASVGDRVTITCRASQDISQYLNWYQQKPGKAPKLLIYYTSRLQSGVPSRFSGSGSGTDFTLTISSLQPEDFATYFCQQGNTWPPTFGQGTKLEIK
notes: scFv clone J662M2S3#10 converted to full length IgG; HC plasmid pHybE-hCg1,z,non-a V2 (human IgG1), LC plasmid pHybE-hCk V3 (human kappa); also called J662M2S3#10
B6: hMAK199-AM8 (antibody, V domains shown)
VH: B5 VH
VL: B5 VL
notes: scFv clone J662M2S3#45 converted to full length IgG; HC plasmid pHybE-hCg1,z,non-a V2 (human IgG1), LC plasmid pHybE-hCk V3 (human kappa); also called J662M2S3#45
B7: AE11-5 AM4 (antibody, V domains shown)
VH: EVQLVQSGAEVKKPGSSVKVSCKASGGTFSWYAISWVRQAPGQGLEWMGGITPILGSPIYAQKFQGRVTITADESTSTVYMELSSLRSEDTAVYYCARGVYYDPKRADYWGQGTLVTVSS
VL: EIVLTQSPDFQSVTPKEKVTITCRASQRIGSSLHWYQQKPDQSPKLLIKHASQSVSGVPSRFSGSGSGTDFTLTINSLEAEDAATYYCHQSRSSPPPTFGQGTKVEIK
notes: Full length IgG converted from scFv clone J703M1S3#30; Human IgG1 (hCg1,z,non-a,mut(234,235)) with human kappa; also called J703M1S3#30
B8: AE11-5 AM1 (antibody, V domains shown)
VH: B7 VH with I34T, P104H, K105R
VL: B7 VL with R28S, S31N, S32T, A51V, S91K, R92V, P96S
notes: Full length IgG converted from scFv clone J703M1S3#2; Heavy chain plasmid is pHybE-hCg1,z,non-a,mut(234,235), i.e. human IgG1 with mutations at 234 and 235; Light chain plasmid is pHybE-hCk, i.e. human kappa; also called J703M1S3#2
B9: AE11-5 AM3 (antibody, V domains shown)
VH: B7 VH with S57T, P58A, I59N
VL: B7 VL with R28S, S32R, V55T, R92G, P97R
notes: Full length IgG converted from scFv clone J703M1S3#26; Human IgG1 (hCg1,z,non-a,mut(234,235)) with human kappa; also called J703M1S3#26
B10: AE11-5 AM5 (antibody, V domains shown)
VH: B7 VH with A33P, S57A, P58G, P104F
VL: B7 VL with R28S, V55T, R92S, P97S
notes: Full length IgG converted from scFv clone J703M1S3#33; Human IgG1 (hCg1,z,non-a,mut(234,235)) with human kappa; also called J703M1S3#33
B11: AE11-5 AM6 (antibody, V domains shown)
VH: B7 VH with P58A, I59T, V100I
VL: B7 VL with R28T, V55I, S91T, R92S, S94L, P96T
notes: Full length IgG converted from scFv clone J703M1S3#35; Human IgG1 (hCg1,z,non-a,mut(234,235)) with human kappa; also called J703M1S3#35
B12: AE11-5 AM8 (antibody, V domains shown)
VH: B7 VH with S57T, P104F
VL: B7 VL with R28T, V55I, R92S
notes: Full length IgG converted from scFv clone J703M1S3#38; Human IgG1 (hCg1,z,non-a,mut(234,235)) with human kappa; also called J703M1S3#38
B13: AE11-5 AM9 (antibody, V domains shown)
VH: B7 VH with V100I
VL: B7 VL with R28S, A51V, V55L, S91R, R92S, P96S
notes: Full length IgG converted from scFv clone J703M1S3#69; Human IgG1 (hCg1,z,non-a,mut(234,235)) with human kappa; also called J703M1S3#69
B14: AE11-5 AM10 (antibody, V domains shown)
VH: B7 VH with P104Y
VL: B7 VL with R28S, S32N, V55I, S91T, S93T, P97L
notes: Full length IgG converted from scFv clone J703M1S3#90; Human IgG1 (hCg1,z,non-a,mut(234,235)) with human kappa; also called J703M1S3#90
B15: AE11-5 AM2 (antibody, V domains shown)
VH: B7 VH with S57A, P58A, I59N
VL: EIVLTQSPDFQSVTPKEKVTITCRASQSIGSTLHWYQQKPDQSPKLLIKHASQSNSGVPSRFSGSGSGTDFTLTINSLEAEDAATYYCHQSSSLPPPTFGQGTKVEI
notes: Full length IgG converted from scFv clone J703M1S3#13; Human IgG1 (hCg1,z,non-a,mut(234,235)) with human kappa; also called J703M1S3#13

molecular target: T1, human TNF-α (human, UniProt P01375 77-233); assay: cell-based or functional assay
T1 sequence (P01375 77-233 R107D limits assumed): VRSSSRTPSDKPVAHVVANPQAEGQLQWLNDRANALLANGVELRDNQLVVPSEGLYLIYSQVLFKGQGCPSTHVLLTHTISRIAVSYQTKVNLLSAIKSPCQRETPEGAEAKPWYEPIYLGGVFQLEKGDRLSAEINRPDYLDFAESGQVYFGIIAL

Binder	hu TNF neutralization IC50 (L929 bioassay) [nM]
B1	0.0401
B2	0.0105
B3	0.0031
B4	0.0114

molecular target: Rhesus/Macaque TNF (rhesus/macaque, UniProt P48094 77-233); assay: cell-based or functional assay
Sequence (P48094 77-233 limits assumed): as the sequence (P01375 77-233 R107D limits assumed) above, with D31R, R44T, T72N, R138L counted along it

Binder	rhesus TNF neutralization IC50 (L929 bioassay) [nM]
B1	4.61
B2	0.803
B3	> 25
B4	0.262

molecular target: T2, human TNF-α (human, UniProt P01375 77-233); assay: hTNFa ELISA; IgG captured on anti-human IgG-Fc, biotinylated human TNF titrated
T2 construct: The ELISA protocol (section 1.3) uses biotinylated human TNF; The L929 assay uses human TNF prepared at Abbott Bioresearch Center; also called hTNFa; hTNF
T2 sequence (P01375 77-233 R107D limits assumed): as the sequence (P01375 77-233 R107D limits assumed) above

Binder	EC50 [nM]
B5	0.016
B6	0.219

molecular target: T3, human TNF-α (human, UniProt P01375 77-233, biotin label in the ELISA (site not stated); unlabelled in the L929 bioassay); assay: cell-based or functional assay
T3 sequence (P01375 77-233 R107D limits assumed): as above

Binder	hu TNF neutralization IC50 [nM]
B7	0.259
B8	0.439
B9	0.291
B10	0.968
B11	2.03
B12	1.36
B13	0.391
B14	0.678
B15	1.24

molecular target: Rhesus/Macaque TNF (Rhesus/Macaque, UniProt P48094 77-233); assay: cell-based or functional assay
Target sequence in this assay (P48094 77-233 limits assumed): as the sequence (P01375 77-233 R107D limits assumed) above, with D31R, R44T, T72N, R138L counted along it

Binder	rhesus TNF neutralization IC50 [nM]
B7	0.109
B8	0.251
B9	0.165
B10	0.613
B11	0.652
B12	3.04
B13	0.123
B14	0.14
B15	0.756

molecular target: T4, cynomolgus monkey TNF (cynomolgus monkey, UniProt P79337 77-233, limits assumed, biotin label in the ELISA (site not stated)); assay: ELISA; IgG captured on goat anti-human IgG-Fc, serially diluted biotinylated cyno TNF, streptavidin-HRP
T4 construct: also called cynoTNF; cyno TNF
Method: (§1) The following protocol is used to characterize the binding of TNF antibodies to biotinylated human or cyno TNF by enzyme-linked immunosorbent assay (ELISA). An ELISA plate was coated with 50 μl per well of goat anti human IgG-Fc at 2 μg/ml, overnight at 4° C. The plate was washed 3 times with PBS/Tween. 50 μl Mab diluted to 1 μg/ml in PBS/0.1% BSA was added to appropriate wells and incubated for 1 hour at room temperature (RT). The plate was washed 3 times with PBS/Tween. 50 μl of serial diluted biotin-human TNF was added to appropriate wells and incubated for 1 hour at RT. The plate was washed 3 times with PBS/Tween. 50 μl of streptavidin-HRP diluted 1:10,000 in PBS/0.1% BSA was added to appropriate wells and incubated for 1 hour at RT. The plate was washed 3 times with PBS/Tween. 50 μl of TMB was added to appropriate wells and the reaction was allowed to proceed for 1 minute. The reaction was stopped with 50 μl/well 2N H₂SO₄ and the absorbance read at 450 nm.

T4 sequence (P79337 77-233 limits assumed): as the sequence (P01375 77-233 R107D limits assumed) above, with D31R, L37V, R44T, T72N, R138L counted along it

Binder	EC50 [nM]
B7	750
B8	2.14
B9	1.55
B10	2.2
B12	58.6
B13	5.29
B14	0.28

molecular target: T3, human TNF-α; assay: ELISA; IgG captured on goat anti-human IgG-Fc, serially diluted biotinylated human TNF, streptavidin-HRP
Method: as §1

Binder	EC50 [nM]
B7	18.3
B8	1.06
B9	1.57
B10	17.7
B11	1.37
B12	250
B13	16.7
B14	0.98
B15	522

molecular target: T1, human TNF-α; assay: ELISA: IgG captured on goat anti-human IgG-Fc, biotin-human TNF titrated, streptavidin-HRP

Binder	EC50 [nM]
B1	0.051
B2	0.056
B3	0.056
B4	0.052

molecular target: T2, human TNF-α; assay: cell-based or functional assay

Binder	hu TNF neutralization IC50 [nM]
B5	0.054
B6	0.247

molecular target: Rhesus/Macaque TNF (Rhesus/Macaque, UniProt P48094 77-233); assay: cell-based or functional assay; remark: another data set of the same source
Target sequence in this assay (P48094 77-233 limits assumed): as the sequence (P01375 77-233 R107D limits assumed) above, with D31R, R44T, T72N, R138L counted along it

Binder	rhesus TNF neutralization IC50 [nM]
B5	0.012
B6	0.204
